Data taken from US10487318.

How the values were obtained:
[1] = target: T1, 26mer peptide (FLQPQQPFPQQPQQPYPQQPQQPFPQ)
T1 chain: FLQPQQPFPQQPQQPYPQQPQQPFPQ

[2] = target: T2, 33mer peptide (LQLQPFPQPQLPYPQPQLPYPQPQLPYPQPQPF)
T2 chain: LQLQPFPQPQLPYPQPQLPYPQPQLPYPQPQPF

[3] = target: T3, Glia_56-79 peptide (LQLQPFPQPQLPYPQPQLPY)
T3 chain: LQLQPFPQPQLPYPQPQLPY

[4] = target: T4, fluorescent analogue of gliadin, hexapeptide QPQLPY conjugated to a fluorophore and a quencher
T4 chain: QPQLPY

[5] = target: T5, α2-gliadin peptide (PQPQLPYSQPQPFR)
T5 chain: PQPQLPYSQPQPFR

[6] = target: T6, α9-gliadin peptide (QLQPFPQPQLPY)
T6 chain: QLQPFPQPQLPY

[7] = target: T7, γ-gliadin peptide (IQPQQPAQL)
T7 chain: IQPQQPAQL

B1: Homologue 4 mutant (protein)
chain: MANHPLNGSERECLKDAQPIGKADPNERLEVTMLVRRRSHDAFEKHISALAAQGASAKHIDHDEFTKHFGADSADLAAVHAFAQKHGLSVVESHEARRAVVLSGTVAQFDAAFGVSLQQYEHDGGTYRGRTGPIHLPDELNGVVDAVMGLDNRPQARPSFRTRAQGNVRWTARAAGASTFTPVQLASLYDFPQGDGQNQCIGIIELGGGYRPADLKTYFASLNMKAPSVTAVSVDHGRNHPTGDPNGPDGEVMLDIEVAGAVAPGAKIVVYFAPNTDAGFIDAIGTAIHDTKNKPSVISISWSGPESAWTQQAMNAFDQAFQSAAALGVTICAASGDNGSGGGVGDGADHVHFPASSPYALGCGGTSLQASGNGIASETVWNDGANGGATGGGVSSFFALPAWQEGLRVTRAGGAHSPLAMRGVPDVAGNADPVTGYEVRVDGHDMVIGGTSAVAPLWAGLIARINAIKGAPVGYINPHLYKDPLALVDITKGNNDDFHATAGWDACTGLGRPDGKKVKDAVS
[1]
  activity on peptide (percent): 19%
[2]
  activity on peptide (percent): 10%

B2: Homologue 9 (NCBI YP_005042475) (protein)
chain: MTKQPVSGSSDKIHPDDAKCIGDCDPSEQIEVIVMLRRKDEAGFRQMMSRIDAGEAPGQAVSREEFDRRFTASDEDIDKVKAFAKQYGLSVERAETETRSVVLKGTIEQFQKAFDVKLERFQHHNIGEYRGRTGPVNVPDEMHDAVTAVLGLDSKPQARPHFRFRPPFKPLRGAAPASFSPVDLAKLYDFPDGDGAGQCIAIIELGGGYRDSDLSAYFSKLGVKAPTVVPVGVDGGKNAPTGNPNGPDGEVTLDIEIAGAIAPGARIAVYFAPNSDAGFVDAVNRALHDAANKPSVISISWGGPESNWSPQSMSAFNDVLQSAAALGVTVCAASGDGGSADGVGDGADHVDFPASSPYVLGCGGTSLAASGAGIAKEVVWNDGDQGGAGGGGVSGTFALPVWQKGLSVTRNGKHIALAKRGVPDVAGDASPQTGYEVLIDGEDTVVGGTSAVAPLWAALIARINAIDASPAGFVNPKLYKAKTAFRDITEGNNGSFSAAAGWDACTGMGSPDGGKIAAALKPAKPSQSAGQQ
[1]
  activity on peptide (percent): 52%
[3]
  grade and % of peptide after an 80-min incubation: +; 9%
[4]
  rate of degradation of the fluorescent hexapeptide, pH 4.0, 37° C.: had activity comparable to or better than Kumamolisin under these conditions
[5]
  grade and % of peptide after an 80-min incubation: ++ (undetect)
[6]
  grade and % of peptide after an 80-min incubation: +/-; 62%
[7]
  grade and % of peptide after an 80-min incubation: ++/-; 32%

B3: KumaMax™ (protein)
chain: MSDMEKPWKEGEEARAVLQGHARAQAPQAVDKGPVAGDERMAVTVVLRRQRAGELAAHVERQAAIAPHAREHLKREAFAASHGASLDDFAELRRFADAHGLALDRANVAAGTAVLSGPDDAINRAFGVELRHFDHPDGSYRSYLGEVTVPASIAPMIEAVLGLDTRPVARPHFRMQRRAEGGFEARSQAAAPTAYTPLDVAQAYQFPEGLDGQGQCIAIIELGGGYDEASLAQYFASLGVPAPQVVSVSVDGASNQPTGDPKGPDGEVELDIEVAGALAPGAKFAVYFAPDTTAGFLDAITTAIHDPTLKPSVVSISWSGPEDSWTSAAIAAMNRAFLDAAALGVTVLAAAGDSGSTGGEQDGLYHVHFPAASPYVLACGGTRLVASGGRIAQETVWNDGPDGGATGGGVSRIFPLPAWQEHANVPPSANPGASSGRGVPDLAGNADPATGYEVVIDGEATVIGGTSAVAPLFAALVARINQKLGKAVGYLNPTLYQLPADVFHDITEGNNDIANRAQIYQAGPGWDPCTGLGSPIGVRLLQALLPSASQPQPGSTENLYFQSGALE
[1]
  activity on peptide (percent): 26%
[2]
  Degradation pattern of 33mer (60 min): degrades the 33-mer at multiple locations (Max-like)
  activity on peptide (percent): 0.1%
[3]
  grade and % of peptide after an 80-min incubation: ++++
[5]
  grade and % of peptide after an 80-min incubation: +/-; 65%
[6]
  grade and % of peptide after an 80-min incubation: ++; 0.9%
[7]
  grade and % of peptide after an 80-min incubation: +/-; 55%
